Test results published in PMC8342710, “Switching at the ribosome: riboswitches need rProteins as modulators to regulate translation”.

Columns and labels:
[1] = molecular target: rS1-depleted 30S ribosomes from E. coli (E. coli (endogenous in strain JE28)) (UniProt P0A7V0); assay: MST; labeled 30SΔS1 (30 nM) with a 1:1 dilution series of rS1 (3 µM); 30 min at 25 °C; 25 mM potassium phosphate pH 7.2, 150 mM KCl, 5 mM MgCl2, 5 mM DTT, 0.4 mg/mL BSA, 0.05% Tween20, RNasin
[2] = molecular target: 30SΔS1 ribosomal subunit (rS1-depleted);ribosomal protein rS1 (Escherichia coli JE28;Vibrio vulnificus CMCP6) (UniProt A0A3Q0L6Y6); assay: MST; conditions: MST: 25 mM K-phosphate pH 7.2, 150 mM KCl, 5 mM MgCl2, 5 mM DTT, 0.4 mg/mL BSA, 0.05% Tween20, RNasin, 25 °C, EMSA: 25 mM K-phosphate pH 7.2, 75 mM KCl
ribosomal protein rS1 = ribosomal protein rS1 (Vibrio vulnificus CMCP6, UniProt A0A3Q0L6Y6 1-556); assay: NMR; holo (adenine); 1:1 rS1 opens P4 and P5 by 50%; MST: 25 mM K-phosphate pH 7.2, 150 mM KCl, 5 mM MgCl2, 5 mM DTT, 0.4 mg/mL BSA, 0.05% Tween20, RNasin, 25 °C; EMSA: 25 mM K-phosphate pH 7.2, 75 mM KCl, 5 mM DTT, on ice; conditions: protein: recombinant; tags: N-terminal His-thioredoxin tag, cleaved by TEV; label: 13C,15N (NMR); riboswitch fold with helices P1-P5

ribosomal protein rS1 from Vibrio vulnificus (from UniProt A0A3Q0L6Y6 1-556) (natural protein)
Kd [1]: 170 nM

GCUUCAUAUAAUCCUAAUGAUAUGGUUUGGGAGUUUCUACCAAGAGCCUUAAACUCUUGAUUAUGAAGUCUGUCGCUUUAUCCGAAAUUUUAUAAAGAGAAGACUCAUGAAUUACUUUGACCUGCCG [ASW14-140, Cy5-labeled add riboswitch]
Kd [2]: 60 nM

B1: ASW14-140, add riboswitch (structured_RNA)
RNA: GCUUCAUAUAAUCCUAAUGAUAUGGUUUGGGAGUUUCUACCAAGAGCCUUAAACUCUUGAUUAUGAAGUCUGUCGCUUUAUCCGAAAUUUUAUAAAGAGAAGACUCAUGAAUUACUUUGACCUGCCG
binding result (ribosomal protein rS1): binds
